Measured values as given in paper PMC8745424.

Tests used:
[1] = target: SARS-CoV-2 S-protein RBD (expressed in P. pastoris) (SARS-CoV-2 (Wuhan-type)) (UniProt P0DTC2); experiment: BLI; settings: BLI (BLItz, streptavidin sensors, immobilized aptamer 200 nM; RBD 50-200 nM): PBS, 0.55 mM MgCl2, 0.1 mg/mL BSA, 0.002% Tween-20, room temperature …
[2] = target: SARS-CoV-2 S-protein RBD (expressed in CHO cells) (SARS-CoV-2 (Wuhan-type)) (UniProt P0DTC2); experiment: BLI; settings: BLI (BLItz, streptavidin sensors, […]; RBD 50-200 nM): PBS, 0.55 mM MgCl2, 0.1 mg/mL BSA, 0.002% Tween-20, room temperature; binding-buffer pH not stated

Q: How did the Kd [1] turn out when “ATCCAGAGTGACGCAGCAGTAGGGGGATTGGCTCCAGGGCCTGGCTGACGGTTGCACGTGGACACGGTGGCTTAGTTTTTTTTTTT [CoV2-RBD-6-Biotin]” was run?
A: 1 nM

Q: And the Kd [2]?
A: 10 nM

Q: What does the source list for “TTTTTTTTTTATCCAGAGTGACGCAGCATTTCATCGGGTCCAAAAGGGGCTGCTCGGGATTGCGGATATGGACACGT [Biotin-CoV2-RBD-4]”?
A: Kd [1]: 14 nM; Kd [2]: 18 nM

Q: What does the source list for “CAGCACCGACCTTGTGCTTTGGGAGTGCTGGTCCAAGGGCGTTAATGGACATTTTTTTTTT [CoV2-RBD-1C-Biotin]”?
A: Kd [1]: 1.5 nM; Kd [2]: 27 nM

Q: How did the Kd [2] turn out when “TTTTTTTTTTATCCAGAGTGACGCAGCATCGAGTGGTGGGCTGGTCGGGTTTGGATTCCCTTAGATGCTGGACACGGTGGCTTAGT [Biotin-CoV2-RBD-2]” was run?
A: 17 nM

Q: With “ATCCAGAGTGACGCAGCACTGCGTAGGCGCGGCCAATGTGTAGGATTGCTCAGGTCTGCTGGACACGGTGGCTTAGTTTTTTTTTTT [CoV2-RBD-3-Biotin]” as the sequence, how does the Kd [1] read?
A: 2 nM

Q: What about the Kd [2] of the same sequence?
A: 24 nM

Q: Which Kd [1] does the source give for “ATCCAGAGTGACGCAGCATCGAGTGGTGGGCTGGTCGGGTTTGGATTCCCTTAGATGCTGGACACGGTGGCTTAGTTTTTTTTTTT [CoV2-RBD-2-Biotin]” here?
A: 10 nM

Q: What about the Kd [2] of the same sequence?
A: 4.3 nM

Q: How did the Kd [1] turn out when “TTTTTTTTTTCAGCACCGACCTTGTGCTTTGGGAGTGCTGGTCCAAGGGCGTTAATGGACA [Biotin-CoV2-RBD-1C]” was run?
A: 0.8 nM

Q: And the Kd [2]?
A: 5.8 nM

Q: With “TTTTTTTTTTATCCAGAGTGACGCAGCAGTAGGGGGATTGGCTCCAGGGCCTGGCTGACGGTTGCACGTGGACACGGTGGCTTAGT [Biotin-CoV2-RBD-6]” as the sequence, how does the Kd [1] read?
A: 3.5 nM

Q: What about the Kd [2] of the same sequence?
A: 29 nM

Q: Which Kd [1] does the source give for “ATCCAGAGTGACGCAGCATTTCATCGGGTCCAAAAGGGGCTGCTCGGGATTGCGGATATGGACACGTTTTTTTTTTT [CoV2-RBD-4-Biotin]” here?
A: 5.5 nM

Q: What about the Kd [2] of the same sequence?
A: 21 nM

Q: Which results are given for “TTTTTTTTTTATCCAGAGTGACGCAGCACTGCGTAGGCGCGGCCAATGTGTAGGATTGCTCAGGTCTGCTGGACACGGTGGCTTAGT [Biotin-CoV2-RBD-3]”?
A: Kd [1]: 1.4 nM; Kd [2]: 40 nM

Q: Which Kd [2] does the source give for “TTTTTTTTTTATCCAGAGTGACGCAGCAGGACTGCTTAGGATTGCGAAGCTGAGGAGCTCCCCCGCCTTGGACACGGTGGCTTAGT [Biotin-CoV2-RBD-5]” here?
A: 22 nM

Q: Which results are given for “ATCCAGAGTGACGCAGCAGGACTGCTTAGGATTGCGAAGCTGAGGAGCTCCCCCGCCTTGGACACGGTGGCTTAGTTTTTTTTTTT [CoV2-RBD-5-Biotin]”?
A: Kd [1]: 1.2 nM; Kd [2]: 26 nM
